B1: SC91.129 (antibody, V domains shown)
VH: QVQLQQPGAELVKPGASVKLSCKASGYTFTNYWMQWVKQRPGQGLEWIGEIDPSDRYTLYNQKFKDKATLTVDTSSSTAYMQLSSLTSEDSAVYYCARFGYYVDYWGQGTTLTVSS
VL: DAVMTQSPLSLPVSLGDQASISCRSSQSLVHSTGNTYLHWYLQKPGQSPKLLIYKVSNRFSGVPDRFSGSGSGTDFTLKISRVEAEDLGVYFCSQTTHVPFTFGSGTKLEIK
notes: copies: 2 + 2
B2: SC91.149 (antibody, V domains shown)
VH: QVQLLQPGAELVKPGSSVKVSCKASGYTFTNYWMQWVKQRPGQGLEWIGEIDPSDTYTLYNQKFKGKATLTVDTSSSTAYMQLSSLTSEDSAVYYCARFGYYVDYWGQGTTLTVSS
VL: DVVMTQTPLSLPVSLGDQASISCRSSQSLVHSTGNTYFHWYLQKPGQSPELLIYKVSNRFSGVPDRFRGSGSGTDFTLKISRVEAEDLGVYFCSQSTHVPFTFGSGTKLEIK
B3: SC91.187 (antibody, V domains shown)
VH: QVQLQQPGPEFVKPGASVKLSCKASGYTFTSYWVQWVKQRPGQGLEWIGEIDPSDNYTLYNQNFKGKATLTVDTSSSTAYMQLSSLTSEDSAVYYCARFGFYVDYWGQGTTLTVSS
VL: DVVMTQTPLSLPVSLGEQASISCRSSQSLVHSTGNTYLHWYLQKPGQSPKLLIYKVSNRFSGVPDRFSGSGSGTDFTLKISRVEAEDLGVYFCSQSTHVPFTFGSGTKLEIK
B4: SC91.172 (antibody, V domains shown)
VH: QVQLQQPGADLVKPGTSVKLSCKASGYTFTSYWMQWVKQRPGQGLEWIGEIDPSDTYTMYNQKFKGKATLTVDTSSSTAYMQLSSLTSEDSAVYYCARFGYYVDYWGQGTTLTVSS
VL: DVVMTQTPLSLPVSLGDQASISCRSSQSLVHSTGNTYLHWYLQKAGQSPKLLIYKVSNRFSGVPDRFSGSGSGTDFTLKISRVEAEDLGVYFCSQSTHVPFTFGSGTKLEIK
B5: SC91.119 (antibody, V domains shown)
VH: QVTLKESGPGILQPSQTLSLTCSFSGLSLSTPGMSVGWIRQPSGKGLEWLAHIWWNDDKSYNPALKSRLTISKDTSNNQVFLKIASVVTADTATYYCARGDRFAYWGQGTLVTVSA
VL: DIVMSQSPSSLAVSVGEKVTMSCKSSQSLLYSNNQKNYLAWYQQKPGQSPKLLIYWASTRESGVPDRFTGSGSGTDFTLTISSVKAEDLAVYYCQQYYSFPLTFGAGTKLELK
B6: SC91.160 (antibody, V domains shown)
VH: QIQLVQSGPELKKPGETVKISCKASGYTFTTYGMNWVKQAPGKGLKWMGWINTYSGVPSSADDFKGRFAFSLETSASTAYLLINNLKNEDTATYFCARSELRNWYFDVWGTGTTVTVSS
VL: SFVMTQTPKFLLVSAGDRVTITCKASQNMGHDVAWYQQKPGQSPKLLIYSASNRYTGVPDRFTGSGYGTDFTFTISTVQAEDLAVYFCQQDYSSPFTFGSGTKLEMK
B7: SC91.155 (antibody, V domains shown)
VH: QIQLVQSGPELKKPGETVKISCKASGYTFTTYGMNWVKQAPGKGLKWMGWINSYSGVPAYADDFKGRFAFSLETFASTAYLQINNLRDEDTATYFCARSELRNWYFDVWGTGTTVTVSS
VL: SFVMTQTPKFLLVSAGDRVTITCKASQNLGNDVAWYQQKPGQSPRLLIYFASNRYTGVPDRFTGSGYGTDFTFTISTVQAEDLAVYFCQQDYSSPFTFGSGTKLEIK
B8: SC91.111 (antibody, V domains shown)
VH: QIQLVQSGPELKKPGETVKISCKASGYTLTTYGMNWVKQAPGKGLKWMGWINTYSGVPAYADDFKGRFAFSLETSASTAYLQINNFKNEDTATYFCARSELRNWYFDVWGTGTTVTVSS
VL: SFVMTQTPKFLLVSAGDRVTITCKASQNMGHNVAWYQQKPGQSPKLLIYYASNRYTGVPDRFTGSGYGTDFTFTISTVQAEDLAVYFCQQDYSSPFTFGSGTKLEIK
notes: copies: 2 + 2
B9: SC91.146 (antibody, V domains shown)
VH: QVQLQQPGAELVKPGASVKLSCKASGYTFTSYWMHWVKQRPGQGLEWIGDIDPSDRYTNYNQKFKGKATLTVDTTSSTAYMQLSSLTSEDSAVYYCAISGWDYFDYWGQGTTLTVSS
VL: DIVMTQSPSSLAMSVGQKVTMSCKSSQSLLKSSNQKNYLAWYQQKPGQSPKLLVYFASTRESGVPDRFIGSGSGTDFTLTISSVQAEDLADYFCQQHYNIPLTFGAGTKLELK
B10: SC91.138 (antibody, V domains shown)
VH: QVQLQQPGAELVMPGASVKLSCKASGYTFTNYWMHWVKQRPGQGLEWIGEIDPSDVYTTYNQKFKDKATLTVDKSSSTAYMQLINLTSEDSAVYYCARSGWDYFDYWGQGTALTVSS
VL: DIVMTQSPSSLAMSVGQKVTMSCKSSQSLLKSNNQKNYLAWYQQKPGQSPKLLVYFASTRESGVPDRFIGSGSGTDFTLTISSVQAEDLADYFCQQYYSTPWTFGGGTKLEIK

Columns and labels:
Cyno-his = target: T1, Cyno-his (cynomolgus); test: Biacore
T1 construct: extracellular domain; soluble analyte of the Biacore runs; also called cSCRx91-his; cBMPR1B-CHis

rat-his = target: T2, rat-his; test: Biacore
T2 construct: soluble analyte of the Biacore runs; also called rSCRx91-his; rBMPR1B-CHis
T2 chain: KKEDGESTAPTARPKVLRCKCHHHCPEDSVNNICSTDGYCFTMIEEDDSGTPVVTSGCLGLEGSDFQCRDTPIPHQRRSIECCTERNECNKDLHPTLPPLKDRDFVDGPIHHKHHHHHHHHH

[1] = target: T3, hBMPR1B-His (human BMPR1B extracellular domain, residues K14 to R126, with C-terminal 9x-Histidine tag) (human, UniProt O00238 14-126); test: Biacore
T3 construct: Residues K14-R126 are counted on the hBMPR1B ORF (NM_001203); The IgK signal peptide of the vector is left out; also called hBMPR1B-CHis; human BMPR1B-his
T3 sequence: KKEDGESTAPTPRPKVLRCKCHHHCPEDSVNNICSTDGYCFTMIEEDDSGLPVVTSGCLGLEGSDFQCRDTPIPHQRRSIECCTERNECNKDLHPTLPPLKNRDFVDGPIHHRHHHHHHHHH

[2] = target: T4, human BMPR1B overexpressed on the surface of HEK293T cells (N-terminal Asp-Lys epitope tag, … (human, UniProt O00238 14-502)); test: flow cytometry
T4 construct: also called HEK293T cells overexpressing hBMPR1B; BMPR1B-expressing HEK293T cells

[3] = target: T5, rat BMPR1B overexpressed on the surface of HEK293T cells (N-terminal Asp-Lys epitope tag, … (rat, UniProt A0A8I6A0G0 62-550)); test: flow cytometry
T5 construct: whole, on cells
T5 sequence (chain, as listed by the source): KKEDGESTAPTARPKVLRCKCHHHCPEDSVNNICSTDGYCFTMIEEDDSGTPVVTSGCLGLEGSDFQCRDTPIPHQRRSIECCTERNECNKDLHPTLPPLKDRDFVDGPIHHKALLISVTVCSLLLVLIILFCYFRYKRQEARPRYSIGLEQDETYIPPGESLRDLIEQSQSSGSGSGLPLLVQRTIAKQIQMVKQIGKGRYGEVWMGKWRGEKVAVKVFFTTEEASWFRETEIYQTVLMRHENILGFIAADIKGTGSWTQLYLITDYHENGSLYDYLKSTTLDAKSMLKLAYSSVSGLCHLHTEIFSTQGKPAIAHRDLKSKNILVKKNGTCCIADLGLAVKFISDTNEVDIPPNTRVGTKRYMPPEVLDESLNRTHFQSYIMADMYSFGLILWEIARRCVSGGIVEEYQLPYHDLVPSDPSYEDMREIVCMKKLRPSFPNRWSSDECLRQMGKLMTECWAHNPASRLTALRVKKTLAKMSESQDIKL

[4] = target: T6, cynomolgus BMPR1B overexpressed on the surface of HEK293T cells (N-terminal Asp-Lys epitope tag, … (cynomolgus)); test: flow cytometry
T6 construct: whole, on cells

[5] = target: T4, human BMPR1B overexpressed on the …; test: cell-based or functional assay
[6] = target: T5, rat BMPR1B overexpressed on the surface …; test: cell-based or functional assay
[7] = target: T6, cynomolgus BMPR1B overexpressed on the …; test: cell-based or functional assay
[8] = target: T7, human BMPR1B coated on MSD plates (construct not stated) (human, UniProt O00238 14-126, limits assumed); test: MSD ELISA, BMP2 blocked; design: concentration or dose not given beside the values
T7 construct: also called BMPR1B receptor
T7 sequence: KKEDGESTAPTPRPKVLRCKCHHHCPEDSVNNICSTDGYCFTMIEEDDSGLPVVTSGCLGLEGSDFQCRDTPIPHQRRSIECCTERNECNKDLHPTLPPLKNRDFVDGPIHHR

[9] = target: T7, human BMPR1B coated on MSD plates …; test: MSD ELISA, BMP4 blocked; design: concentration or dose not given beside the values

Binder | Kd (Cyno-his) [nM] | Kd (rat-his) [nM] | Kd [1] [nM] | gMFI [2] | gMFI [3] | gMFI [4] | % live, Fab-saporin, 250pM [5] [%] | % live, Fab-saporin, 250pM [6] [%] | % live, Fab-saporin, 250pM [7] [%] | % inhibition [8] [%] | % inhibition [9] [%] | binding result (rat-his)
B1 | 1.62 | 0.561 | 0.564 | 26900 | 10200 | 16000 | 23.1 | 39.2 | 18.5 | 40 | 83 | –
B2 | 2 | < 0.1 | 1.03 | 27000 | 10600 | 15400 | 18.3 | 29.1 | 20.7 | 47 | 84 | –
B3 | 5.58 | 3.25 | 2.86 | 25900 | 9680 | 14800 | 19.1 | 36.7 | 24.2 | 37 | 83 | –
B4 | 4.47 | 1.18 | 1.96 | 24000 | 9510 | 15000 | 19.6 | 34.1 | 18 | 51 | 81 | –
B5 | 5.52 | 5.35 | 6.44 | 17300 | 7510 | 11500 | 24.9 | 40.8 | 34.7 | 35 | 65 | –
B6 | 38.8 | – | 3.12 | 27000 | – | 15800 | 24.3 | 77.9 | 34.6 | 47 | 79 | binds
B7 | – | – | 1.12 | 25300 | 7690 | 14600 | 29.3 | 81.1 | 45.1 | 49 | 79 | binds
B8 | – | – | 6.67 | 25200 | 3810 | 9120 | 20.3 | 87.1 | 52.9 | 36 | 69 | –
B9 | < 0.1 | < 2 | 1.21 | 15800 | 6220 | 10900 | 20.5 | 38.8 | 25.4 | 29 | 79 | –
B10 | 0.937 | 1.84 | 0.658 | 24500 | 9660 | 16000 | 21 | 37.3 | 17.6 | 10 | 79 | –
